B1: TPR t1 (parent)
chain: GACCAAUCUGCCCUCAGAGCUCGAGAACAUCUUCGGAUGCAGAGGAGGCAGGCUUCGGUGGCGCGAUAGCGCCAACGUCCUCAACCUCCAAUGCAUCCCACCACAUGAUGAUGCCUGAAGAGCCUUGGUUUUUUG

Variants of: B1
Assay: polymerase ribozyme fitness, log enrichment relative to wild type (log ratio); higher = more active; in vitro selection for triplet polymerase activity
Method in brief: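 Libraries of mutants in each subunit of a heterodimeric triplet polymerase ribozyme were generated by PCR and transcribed. In triplicate, each went through one in vitro selection round: annealing with biotinylated primer, partner subunit and triplets; frozen incubation at −7 °C; gel excision of extended constructs; streptavidin-bead capture; RT-PCR. Fitness, taken from Illumina sequencing of input and output libraries, is the logarithm of a genotype's enrichment over wild-type enrichment, averaged across replicates with inverse-variance weights. The logarithm is base 2, and genotypes needed ≥10 input reads and ≥1 read per output to be kept.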

| Variant | polymerase ribozyme fitness (log ratio) |
| --- | --- |
| C12A G57U G71U | -0.629 |
| C12G G69C C72U A90U U116G | -6.29 |
| C12U C15A U125G U133A | -1.18 |
| C12A C123A | 0.369 |
| C12U A16G U106A | 0.278 |
| C12A G48A U55C G57U U59G C85U | -3.61 |
| C12A G69A A100C A121C | -3.75 |
| C12A U54A C80G | -4.17 |
| C12A C34G G122U | -5.34 |
| C12A A50C C53U A74C | -0.606 |
| C12G G110U U130A | -1.34 |
| C12G G63U A66G U109A A119U G127U | -5.43 |
| C12G C56U | -0.0119 |
| C12G A46G G48A C79A | -2.27 |
| C12A A100C A121C | 1.43 |
| C12G C64A | -6.46 |
| C12A C64U U133G | -0.934 |
| C12G A66C G93A C104U | -1.71 |
| C12G A43U A75U C124G | 0.348 |
| C12U C72U U96A C115U | -1.92 |
| C12A A26U G36A G48C C72U | -4.02 |
| C12G G39U G61A U106C G127C | -2.63 |
| C12A U130C | -1.06 |
| C12A G71U | -0.821 |

| Variant | polymerase ribozyme fitness (log ratio) |
| --- | --- |
| C12A C20A G113U C115U U131A | -3.38 |
| C12U A18C G52U C79A G127C | -2.61 |
| C12A C72A C99A G120U G128U | -7.62 |
| C12G G52U | -0.405 |
| C12A A26G A121C | -1.17 |
| C12A G45U C56U G93A | -2.57 |
| C12A C82A | -0.699 |
| C12A G127U | -1.39 |
| C12A C13A U55A G63U U131A | -2.53 |
| C12A G52A C73U A91G | -2.04 |
| C12G U96A | -0.352 |
| C12A A29U C86A | -2.52 |
| C12G G93A | -0.233 |
| C12A C49U G69U U109A U116A C123G | -5.67 |
| C12A G17C G48C | -6.47 |
| C12A G128C | -2.18 |
| C12A G128U | -2.12 |
| C12A C70G | -2.78 |
| C12A C70U | -0.454 |
| C12U C20U A91U U116G | -4.44 |
| C12G G36C G58A | -1.29 |
| C12U A68G | -1.94 |
| C12A C62A C98A | -6.54 |
| C12G C88G | -0.624 |

| Variant | polymerase ribozyme fitness (log ratio) |
| --- | --- |
| C11U U21A A27G A105G | -4.61 |
| C12G G71C A105G U125A | -4.36 |
| C12A C62G U133G | -1.75 |
| C12A G58A G61C C79U C82A A83C C114U | -5.31 |
| C12G U14C U59G C73G | -2.57 |
| C12G C98A | -4.17 |
| C12G A46C C53A C104A C123U | -1.14 |
| C12G G120A | 1.87 |
| C12A C40U U87G | -1.56 |
| C12U C20A A74U G128A | -5.15 |
| C12A G44A A46G G48U | -3.1 |
| C12G G47U U87G U116A C124A | -1.26 |
| C12G C40G G45A C56U | -1.34 |
| C12G G60A C115G | -4.95 |
| C12G C40G G63A | -1.01 |
| C12A G36U | -1.6 |
| C12A G36C | -1.69 |
| C11U G71U C123A | 1.29 |
| C12A G63C A111U | -4.83 |
| C12G A43U | -0.979 |
| C12U C15U A46C G47A G69C A100G C101U G113U C123G | -7.1 |
| C12U C56A U92G C101G A121G | -3.35 |
| C12G G19A C20U C98U | -3.29 |
| C12A C40A | -2.34 |

| Variant | polymerase ribozyme fitness (log ratio) |
| --- | --- |
| C12G U78A G93A C124G | 0.89 |
| C12G G47U | -1.82 |
| C12A G63U C70G C89A A90U A100U A121G | -1.48 |
| C11U G128A | -2.45 |
| C12G C28G A37U G110U | 0.364 |
| C12A G113A | -2.14 |
| C12G G69U C115A | 0.211 |
| C12A A24C C97U | -7.95 |
| C12G A27C C104U G113U G120A G122A U130A | -6.9 |
| C12A U14G G17A C20A C94A | -3.13 |
| C12A A37U A105G G122A | -3.74 |
| C12U C15G G39A C56A G120A | 0.312 |
| C12G A121U | 1.78 |
| C12G G36A C94A | -3.18 |
| C12A C73A | 1.15 |
| C12A C53U | -0.724 |
| C11U U21A A27G C70G A105G | -5.92 |
| C12U A16C U59A U92C C124A | 0.146 |
| C12G A74U C80U | -1.1 |
| C12U C20G A43C G48A | -5.39 |
| C12A G51U G71U U133C | -4.34 |
| C12G U14C G45A A68G U106A | -4.06 |
| C12G G93U U112A | 0.281 |
| C12A G69C | -2.39 |

| Variant | polymerase ribozyme fitness (log ratio) |
| --- | --- |
| C12A G60C U106G | -2.28 |
| C12U C62U C80G U109G C114A | -6.17 |
| C12A C64U A90C | -2.08 |
| C12A C40U A91C | -3.09 |
| C12U C79G C89A A121C | -3.82 |
| C12U C72U A100C G113U G127A | -3.91 |
| C12A G17U U96A G120U | -1.6 |
| C12A G17U A46G C80G A84G C115A | -4.53 |
| C12A A18C U112C C124U | -0.619 |
| C11U G77U U112C | 1.4 |
| C12U C53U C56U | -0.154 |
| C11U U59C G93A | -1.49 |
| C12G C72G U87C | 0.909 |
| C12G G113U | -3.38 |
| C12A A46U G47C C124G | -0.295 |
| C12A C56A C115U G120A C123A | -1.84 |
| C12A G44A C72G A100U | -2.22 |
| C12U A27G G69A C88A U125G | -3.8 |
| C12A A41C C72U U92G A111G | -1.91 |
| C12G C28U C72U C123U U125G | -0.502 |
| C12G C70U | -0.468 |
| C12G C70G | -2.83 |
| C11U U106C | -0.678 |
| C12G G61A G128U | -1.84 |

| Variant | polymerase ribozyme fitness (log ratio) |
| --- | --- |
| C12G A41C | -0.0245 |
| C12G C28G A37U C72U G110U | -0.76 |
| C12U A16C C73A A83C | 0.284 |
| C12G C15U C31A G44A G47A G63C A84U G110C | -6.78 |
| C11U G113U | -2.7 |
| C12U C62G | -1.57 |
| C12G C15U G48A G61A U81G C123U | -2.3 |
| C12A G117C A121C U132A | -5.13 |
| C11U U55A C80A C86G C124G | -4.52 |
| C12U A46G C62A U67C U112A U129G | -4.48 |
| C12G A119U | 0.00185 |
| C11U G93A | -0.986 |
| C12G C22U | -3.18 |
| C12G G39U G61U | 0.0718 |
| C12G G44A C73G C82U | -0.977 |
| C12A G110A C123U | -1.84 |
| C11U U112C | 1.46 |
| C11U U112A | 1.19 |
| C12A G47A C72G G93A | -4.15 |
| C12A G122A | -0.788 |
| C12U C56G | -0.12 |
| C12U C56A | -0.454 |
| C12U C79G C101U G120A | 0.377 |
| C12A U87A C89G C94A G113A | -6.04 |

| Variant | polymerase ribozyme fitness (log ratio) |
| --- | --- |
| C12U A16C G42U U78A A121C | -0.175 |
| C12G G51A | -2.1 |
| C12G C104U G128C U133A | -0.738 |
| C12G A27C | -2.38 |
| C12A A75U A111C | 0.286 |
| C12A C15U G52U G63A C86U G117C | -5.35 |
| C12A A46U C72G C114U | -4.57 |
| C12G C56U A100C G117U | -3.6 |
| C12G G36U G61U A111C | 0.246 |
| C12U C72G G117C A119U | -1 |
| C12A C62U G128U | -3.03 |
| C12A C15U G69A G93U U109G | -6.39 |
| C12U A46U G51U G60A | -3.42 |
| C12G G45C U55C C72U C85A U96A | -4.29 |
| C12U A26C G45C G61C A75C C82A | -6.28 |
| C12G G42C C70A U78A A91U | -5.9 |
| C12U A46U A121C | -0.0492 |
| C12U A18U C40U U106C C114G | -2.23 |
| C12G C70G C85A | -3.7 |
| C12U A46G C56A A105U | -1.73 |
| C12G G58A G61A C62U C124G | 0.824 |
| C12A C22U U78C A121U | -2.5 |
| C12U C15U C49A C101U U133G | -1.18 |

— the RNAGym collection of RNA variant scans (doi:10.1073/pnas.2313332121)
